Measurements from US20240108766A1 (Bayer, published 2024).
Changes are numbered by the printed parent chain.

T1: human LRRC15 extracellular domain with C-terminal His tag (human, UniProt Q8TF66 22-538)
T1 construct: Recombinant, made in HEK293; the entry holds the extracellular domain and the His tag; SPR analyte; also called TPP-1545; hLRRC15 CT-His
T1 sequence: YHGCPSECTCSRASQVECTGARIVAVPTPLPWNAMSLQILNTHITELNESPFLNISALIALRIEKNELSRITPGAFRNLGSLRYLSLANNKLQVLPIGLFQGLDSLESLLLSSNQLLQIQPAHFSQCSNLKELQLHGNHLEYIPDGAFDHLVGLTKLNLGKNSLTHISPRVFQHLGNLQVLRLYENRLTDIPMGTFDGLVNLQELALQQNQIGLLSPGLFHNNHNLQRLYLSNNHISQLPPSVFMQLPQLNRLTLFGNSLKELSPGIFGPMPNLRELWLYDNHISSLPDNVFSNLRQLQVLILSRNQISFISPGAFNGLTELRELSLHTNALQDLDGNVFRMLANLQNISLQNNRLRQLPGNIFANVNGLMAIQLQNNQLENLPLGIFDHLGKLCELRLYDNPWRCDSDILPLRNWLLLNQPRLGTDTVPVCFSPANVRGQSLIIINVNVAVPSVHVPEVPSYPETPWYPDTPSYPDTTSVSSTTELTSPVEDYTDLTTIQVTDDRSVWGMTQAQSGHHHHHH

T2: cynomolgus (Macaca fascicularis) LRRC15 extracellular domain with C-terminal His tag (cynomolgus monkey (Macaca fascicularis), UniProt Q8TF66 22-538 (human entry))
T2 construct: Recombinant, made in HEK293; the entry holds the extracellular domain and the His tag; SPR analyte; also called TPP-9046
T2 chain: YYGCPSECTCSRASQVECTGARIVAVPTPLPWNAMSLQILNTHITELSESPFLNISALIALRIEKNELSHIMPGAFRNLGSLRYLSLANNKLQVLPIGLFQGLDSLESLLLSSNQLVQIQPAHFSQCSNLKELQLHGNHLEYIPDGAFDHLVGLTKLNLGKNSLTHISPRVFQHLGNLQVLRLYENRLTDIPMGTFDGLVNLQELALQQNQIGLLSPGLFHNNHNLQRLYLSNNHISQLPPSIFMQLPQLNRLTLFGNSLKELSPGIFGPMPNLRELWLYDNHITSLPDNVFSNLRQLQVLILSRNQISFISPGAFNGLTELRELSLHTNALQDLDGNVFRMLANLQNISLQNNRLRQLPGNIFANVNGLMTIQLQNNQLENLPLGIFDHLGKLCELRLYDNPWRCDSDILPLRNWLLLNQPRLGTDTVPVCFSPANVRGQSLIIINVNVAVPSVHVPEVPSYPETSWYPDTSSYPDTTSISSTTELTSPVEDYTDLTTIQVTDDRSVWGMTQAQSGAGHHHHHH

B1: TPP-14389 (antibody, human IgG1, kappa, V domains shown)
VH: EVQLLESGGGLVQPGGSLRLSCAASGFTFSGYMMSWVRQAPGKGLEWVSGIYPSPGYTYYADSVKGRFTISRDNSKNTLYLQMNSLRAEDTAVYYCAREKASDLFGSYSEALDYWGQGTLVTVSS
VL: DIQMTQSPDSLSASVGDRVTITCRASQDVGSWLAWYQQKPGKAPKLLIFAASSLESGIPSRFSGSGSGTDFTLTISSLQPEDFATYYCQQANGFPLTFGGGTKVEIKR
notes: also called 13612-rec02-hIgG1Kappa
B2: TPP-12942 (antibody, human IgG1, kappa, V domains shown)
VH: EVQLVQSGAEVKKPGASVKVSCKASGYKFSSYWIEWVKQAPGQGLEWIGEILPGSDTTNYNEKFKDRATFTSDTSINTAYMELSRLRSDDTAVYYCARDRGNYRAWFGYWGQGTLVTVSS
VL: DIQMTQSPSSLSASVGDRVTITCRASQDISNYLNWYQQKPGGAVKFLIYYTSRLHSGVPSRFSGSGSGTDYTLTISSLQPEDFATYFCQQGEALPWTFGGGTKVEIKR
notes: Prior art humanized IgG1 kappa antibody, used as comparator; also called huM25; huM25-hIgG1Kappa
B3: TPP-17078 (antibody, human IgG1, kappa, V domains shown)
VH: B2 VH
VL: B2 VL with D28S, N31S, V44P, T51A, R53S, H55Q, F87Y, E92F, A93S
notes: also called 438H-M308-H05-hIgGkappa
B4: TPP-17421 (antibody, human IgG1, kappa, V domains shown)
VH: B2 VH with T57W, G108Q
VL: B2 VL with D28S, N31S, V44P, T51A, R53S, H55Q, F87Y, E92L, A93E
notes: also called 438H-M306-C11-hIgG1Kappa

molecular target: T1, human LRRC15 extracellular domain with …; assay: SPR thermodynamics (van't Hoff/Eyring), 10-37°C
Description: Thermodynamics help to explain why an interaction is happening and what the driving forces for the interaction are. To assess the thermodynamic parameters for anti-LRRC15 antibodies binding assays were conducted using surface plasmon resonance (SPR). Binding assays were performed on a Biacore T200 instrument at temperatures of 10° C., 20° C., 25° C. and 37° C. with assay buffer HBS EP+, 1 mg/ml BSA, 300 mM NaCl, 0.05% NaN3. Antibodies were captured via anti-human Fc IgGs covalently amine coupled to a CM5 sensor chip and human LRRC15 was used as an analyte in a concentration series from 1.56-200 nM in multi cycle kinetics mode. Pre-experiments were conducted to have an equal capture level at each temperature. Obtained sensorgrams were fitted to a 1:1 Langmuir binding model to derive kinetic data. Thermodynamic parameters were obtained using the integrated thermodynamics wizard in the Biacore T200 software. Van′t Hoff and Eyring plots were calculated and plotted and thermodynamic parameters were derived.

-TΔS [kcal/mol]	ΔG^0 [kcal/mol]	ΔH^0 [kcal/mol]	Binder
19.4	-11.2	-31.1	B1
6.69	-10.5	-17	B2
10.3	-12	-22.2	B3
-1.82	-12.2	-10.5	B4

molecular target: T1, human LRRC15 extracellular domain with …; assay: SPR Biacore T200, antibody captured, LRRC15 analyte, 37°C
Description: To assess if anti-LRRC-15 antibodies show a difference in binding at different temperatures, binding assays were conducted using surface plasmon resonance (SPR). Binding assays were performed on a Biacore T200 instrument at temperatures of 10° C., 20° C., 25° C. and 37° C. with assay buffer HBS EP+, 1 mg/ml BSA (bovine serum albumine), 300 mM NaCl, 0.05% NaN₃. Antibodies were captured via anti-human Fc IgGs covalently amine coupled to a CM5 sensor chip and human LRRC15 was used as an analyte in a concentration series from 1.56-200 nM in multi cycle kinetics mode. Pre-experiments were conducted to have an equal capture level at each temperature. Obtained sensorgrams were fitted to a 1:1 Langmuir binding model to derive kinetic data.

Kd [nM]	Binder
66	B1
72	B2
9.9	B3
2.4	B4

Molecular target: T2, cynomolgus (Macaca fascicularis) LRRC15 …
Assay: SPR Biacore T200, 25°C, antibody captured, LRRC15 analyte
Description: (§1) To assess the binding kinetics and affinity of anti-LRRC15 antibodies as well as their species cross-reactivity profile, binding assays were conducted using surface plasmon resonance (SPR). Binding assays were performed on a Biacore T200 instrument at 25° C. using assay buffer HBS EP+, 1 mg/ml BSA, 300 mM NaCl, 0.05% NaN3. Antibodies were captured via anti-human Fc IgGs covalently amine coupled to a CM5 sensor chip and human, mouse and cynomolgus LRRC15 were used as analytes in a concentration series from 1.56-200 nM in multi cycle kinetics mode. […] Obtained sensorgrams were fitted to a 1:1 Langmuir binding model to derive kinetic data.

Kd [nM]	Binder
9	B1
36	B2
1.8	B3
0.91	B4

molecular target: T1, human LRRC15 extracellular domain with …; assay: SPR (Example 6), overview table, repeats Table 9; head prints [M^-1]
Description: as §1

Kd [nM]	Binder
5.9	B1
25	B2
1.7	B3
0.96	B4

Molecular target: T2, cynomolgus (Macaca fascicularis) LRRC15 …
Assay: as above
Description: as §1

Kd [nM]	Binder
9	B1
36	B2
1.8	B3
0.91	B4
